The target of experiment [1] is T1, F-actin (rabbit skeletal muscle α-actin, filamentous) (rabbit (Oryctolagus cuniculus), UniProt P68135 1-377). As to the kind of experiment: other fluorescence titration.
Experiment [2] addresses T1, F-actin (rabbit skeletal muscle …). As to the kind of experiment: fluorescence polarisation. (In general: Polarisation of emitted light reports the rotation of a fluorescent probe.)

This note sets out measurements from paper PMC11162321 (Structure (London, England : 1993), 2024).

B1: SipAC-Core (SipA residues 512-658), unlabelled (domain or fragment)
chain: TGPFSGLKFKQNSFLSTVPSVTNMHSMHFDARETFLGVIRKALEPDTSTPFPVRRAFDGLRAEILPNDTIKSAALKAQCSDIDKHPELKAKMETLKEVITHHPQKEKLAEIALQFAREAGLTRLKGETDYVLSNVLDGLIGDGSWRA
As a reminder, the Kd is the concentration at which binding is half-saturated. Read a high Kd as a looser complex. Consider B1, for which, in experiment [1], the Kd came out at 81 nM.

B2: FM-SipAC-ΔArm2 (SipA residues 425-658 labelled with fluorescein maleimide) (domain or fragment)
chain: TGETTSFDEVDGVTSKSIIGKPVQATVHGVDDNKQQSQTAEIVNVKPLASQLAGVENVKTDTLQSDTTVITGNKAGTTDNDNSQTDKTGPFSGLKFKQNSFLSTVPSVTNMHSMHFDARETFLGVIRKALEPDTSTPFPVRRAFDGLRAEILPNDTIKSAALKAQCSDIDKHPELKAKMETLKEVITHHPQKEKLAEIALQFAREAGLTRLKGETDYVLSNVLDGLIGDGSWRA
modifications: labeled with fluorescein maleimide (FM)
On to B2, for which, in experiment [2], the Kd amounted to 120 nM. In other words, the sub-micromolar range.
